Test [1] deals with T1, soluble human FcRn (shFcRn) (human, UniProt P55899 24-297; P61769 21-119).
T1 construct: Biotinylated for the ELISA, amine-coupled to a CM5 chip for SPR; also called biotinylated shFcRn
As to the kind of experiment: IgG competition ELISA.
Experimental: (§1) The wells were coated with 100 μl/well of 1 μg/ml biotinylated-shFcRn in Buffer A. The plate was sealed and incubated at 37° C. for 2 hours. Afterwards, the plate was washed with 200 μl/well of Buffer B (Buffer B: 100 mM MES pH 6, 150 mM NaCl, 0.5% BSA IgG-free (Jackson ImmunoResearch, West Grove, Pa.), 0.05% Tween-20). […] To allow for mixing, the plate was rocked for 2 minutes, sealed and incubated at 37° C. for 2 hours. […] The plate was covered, incubated for 30 minutes at room temperature and washed 4 times with 200 μl/well of ice-cold buffer B. SureBlue TMB substrate solution (100 μl/well, KPL, Gaithersburg, Md.) was added and the plate was allowed to incubate at room temperature until color developed, which took 5 to 10 minutes. Once color developed, 100 μl/well of TMB stop solution (KPL, Gaithersburg, Md.) was added and the absorbance was measured at 450 nm. The data was plotted as absorbance vs. peptide concentration to derive the inhibitory concentration 50% (IC₅₀) values.

The target of test [2] is T1, soluble human FcRn (shFcRn). As to the kind of experiment: SPR pH 6.
Experimental: (§2) The following steps were performed to cross-link soluble human or cynomolgus FcRn to the dextran surface of a CM5 sensor chip (Biacore AB, Uppsala, Sweden) by an amine coupling reaction involving 1-ethyl-(3-dimethylaminopropyl)-carbodiimide hydrochloride (EDC) (Biacore AB, Uppsala, Sweden) and N-hydroxysuccinimide (NHS) (Biacore AB, Uppsala, Sweden) as recommended by Biacore (BIAapplications Handbook, version AB, section 4.2, Biacore AB, Uppsala, Sweden). […] Residual sites on the FcRn flow cell were blocked with 1 M ethanolamine hydrochloride pH 8.5 (Biacore AB, Uppsala, Sweden). A control flow cell was blocked with ethanolamine for reference subtraction. For analysis of the monomeric peptides, FcRn was coated to a final density of 4000-5000 response units (RU). For analysis of the peptide dimers, FcRn was coated to a density of 2000-2500 RU. All SPR measurements were performed using a BIACORE 3000 Instrument (Biacore AB Uppsala, Sweden). For measurements done at either pH 6 or pH 7.4, experiments were performed in 50 mM phosphate, 100 mM sodium chloride, 0.01% surfactant P20 (Biacore AB, Uppsala, Sweden).
(§3) Ten, 2-fold dilutions of the peptide were injected over the FcRn-CM5 chip at a rate of 20 μl/min for 2 min. The peptide was dissociated from the chip for 2.5 minutes with buffer. Any remaining peptide was removed from the chip with a 30 second injection of HBS-P buffer (Biacore AB, Uppsala, Sweden) at a rate of 30 μl/min. Sensorgrams were generated and analyzed using BiaEval software version 3.1 (Biacore AB, Uppsala, Sweden). The equilibrium RU observed for each injection was plotted against concentration. The equilibrium KD values were derived by analysis of the plots using the steady state affinity model included in the BiaEval software.
The target is the same in test [3]. Kind of test: IgG competition ELISA. This is another data set of the same source.
Experimental: as §1
Test [4] has the same target. Kind of test: SPR pH 7.4; Peptide No. 146: Pen for Cys and NMeLeu for Leu (RF-Pen-TGHFGG-NMeLeu-YPCNGP).
Experimental: as §2
(§4) Ten, 2-fold dilutions of the peptide were injected over the FcRn-CM5 chip at a rate of 20 μl/min for 2 min. The peptide was dissociated from the chip for 2.5 minutes with buffer. […] Sensorgrams were generated and analyzed using BiaEval software version 3.1 (Biacore AB, Uppsala, Sweden). […]
The target is the same in test [5]. As to the kind of experiment: SPR pH 6. The source holds these as a separate data set.
Experimental: as §2, §4
For test [6] the target is unchanged. Kind of test: IgG competition ELISA. This is another data set of the same source.
Experimental: as §1
Test [7] shares this target. Kind of test: IgG competition ELISA. This is another data set of the same source.
Experimental: as §1
For test [8] the target is unchanged. As to the kind of experiment: SPR pH 6. The source holds these as a separate data set.
Experimental: as §2, §3
Test [9] shares this target. As to the kind of experiment: IgG competition ELISA. The source holds these as a separate data set.
Experimental: as §1
Test [10] has the same target. As to the kind of experiment: SPR pH 6; Peptide No. 114: Pen, NMeTyr (QRF-Pen-TGHFGGL-NMeTyr-PCNGP).
Experimental: as §2, §4
For test [11] the target is unchanged. Kind of test: SPR pH 6. The source holds these as a separate data set.
Experimental: as §2, §4
Test [12] shares this target. As to the kind of experiment: IgG competition ELISA. This is another data set of the same source. (In general: ELISA stands for enzyme-linked immunosorbent assay.)
Experimental: as §1
Test [13] has the same target. Kind of test: IgG competition ELISA. This is another data set of the same source.
Experimental: as §1
Test [14] has the same target. As to the kind of experiment: SPR pH 6; Peptide No. 113: Pen, NMeLeu (QRF-Pen-TGHFGG-NMeLeu-YPCNGP).
Experimental: as §2, §4

Like-named read-outs stand apart in the source and are kept apart here. Bridge positions count the residues as written; N and C are the ends. Square brackets hold non-standard residues; d marks the D form. Ends that are not written are not given here. NMeY = CN[C@@H](Cc1ccc(O)cc1)C(=O)O; NMeL = CN[C@@H](CC(C)C)C(=O)O; Pen = CC(C)(S)[C@H](N)C(=O)O; NMeA = CN[C@@H](C)C(=O)O

The term IC50 denotes the concentration that inhibits the measured activity by half. Usually Kd stands for the equilibrium constant for the complex coming apart.

T1 sequence (P55899 24-297 limits assumed, chain 1 of 2): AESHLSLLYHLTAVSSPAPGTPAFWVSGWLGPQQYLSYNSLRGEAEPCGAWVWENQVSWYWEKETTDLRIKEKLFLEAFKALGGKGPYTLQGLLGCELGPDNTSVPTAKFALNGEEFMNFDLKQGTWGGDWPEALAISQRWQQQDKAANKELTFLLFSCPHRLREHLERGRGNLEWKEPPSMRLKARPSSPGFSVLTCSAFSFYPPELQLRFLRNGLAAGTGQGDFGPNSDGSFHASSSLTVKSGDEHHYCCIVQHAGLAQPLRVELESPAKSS
T1 sequence (P61769 21-119 limits assumed, chain 2 of 2): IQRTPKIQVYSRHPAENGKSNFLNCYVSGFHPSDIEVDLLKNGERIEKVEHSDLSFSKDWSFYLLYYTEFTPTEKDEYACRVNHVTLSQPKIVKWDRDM

B1: Peptide No. 194 (peptide)
peptide: QRFCTGHFGXYPCNGP
modifications: Pen 4; X 10 = D,L-Friedinger's lactam (dipeptide mimetic in place of Gly-Leu); disulfide 4-13; C-terminal amide
As for B1, the IC50 in test [1] turned out to be 4900 nM.

B2: Peptide No. 146 (peptide)
peptide: RF[Pen]TGHFGG[NMeL]YPCNGP-NH2
modifications: disulfide 3-13; N-terminus assumed
SMILES: CC(C)C[C@H]1C(=O)N[C@@H](Cc2ccc(O)cc2)C(=O)N2CCC[C@H]2C(=O)N[C@H](C(=O)N[C@@H](CC(N)=O)C(=O)NCC(=O)N2CCC[C@H]2C(N)=O)CSSC(C)(C)[C@H](NC(=O)[C@H](Cc2ccccc2)NC(=O)[C@@H](N)CCCNC(=N)N)C(=O)N[C@@H]([C@@H](C)O)C(=O)NCC(=O)N[C@@H](Cc2c[nH]cn2)C(=O)N[C@@H](Cc2ccccc2)C(=O)NCC(=O)NCC(=O)N1C
B2: the Kd is 59 nM in [2] and 280 nM in test [4]. For the same molecule, in [3], the IC50 stood at 2100 nM.

B3: Peptide No. 142 (peptide)
peptide: RF[Pen]TGHFG[dP]LYPC-NH2
modifications: disulfide 3-13; N-terminus assumed
SMILES: CC(C)C[C@@H]1NC(=O)[C@H]2CCCN2C(=O)CNC(=O)[C@H](Cc2ccccc2)NC(=O)[C@H](Cc2c[nH]cn2)NC(=O)CNC(=O)[C@H]([C@@H](C)O)NC(=O)[C@@H](NC(=O)[C@H](Cc2ccccc2)NC(=O)[C@@H](N)CCCNC(=N)N)C(C)(C)SSC[C@@H](C(N)=O)NC(=O)[C@@H]2CCCN2C(=O)[C@H](Cc2ccc(O)cc2)NC1=O
In the case of B3, the Kd in test [5] was found to be 140 nM. In [6], the concentration for half-maximal inhibition (IC50) came out at 1500 nM.

B4: Peptide No. 98 (peptide)
peptide: QRW[Pen]TGHFGGLYPCNGP-NH2
modifications: disulfide 4-14; N-terminus assumed
SMILES: CC(C)C[C@@H]1NC(=O)CNC(=O)CNC(=O)[C@H](Cc2ccccc2)NC(=O)[C@H](Cc2c[nH]cn2)NC(=O)CNC(=O)[C@H]([C@@H](C)O)NC(=O)[C@@H](NC(=O)[C@H](Cc2c[nH]c3ccccc23)NC(=O)[C@H](CCCNC(=N)N)NC(=O)[C@@H](N)CCC(N)=O)C(C)(C)SSC[C@@H](C(=O)N[C@@H](CC(N)=O)C(=O)NCC(=O)N2CCC[C@H]2C(N)=O)NC(=O)[C@@H]2CCCN2C(=O)[C@H](Cc2ccc(O)cc2)NC1=O
B4: in [7], the IC50 came out at 1500 nM. This lies in the single-digit micromolar range.

B5: Peptide No. 195 (peptide)
peptide: QRF[Pen]GGHFGGLYPCNGP-NH2
modifications: disulfide 4-14; N-terminus assumed
SMILES: CC(C)C[C@@H]1NC(=O)CNC(=O)CNC(=O)[C@H](Cc2ccccc2)NC(=O)[C@H](Cc2c[nH]cn2)NC(=O)CNC(=O)CNC(=O)[C@@H](NC(=O)[C@H](Cc2ccccc2)NC(=O)[C@H](CCCNC(=N)N)NC(=O)[C@@H](N)CCC(N)=O)C(C)(C)SSC[C@@H](C(=O)N[C@@H](CC(N)=O)C(=O)NCC(=O)N2CCC[C@H]2C(N)=O)NC(=O)[C@@H]2CCCN2C(=O)[C@H](Cc2ccc(O)cc2)NC1=O
Consider B5, for which the dissociation constant Kd in test [8] was 760 nM.

B6: Peptide No. 213 (peptide)
peptide: QRF[Pen][NMeA]GHFGGLYPCNGP-NH2
modifications: disulfide 4-14; N-terminus assumed
SMILES: CC(C)C[C@@H]1NC(=O)CNC(=O)CNC(=O)[C@H](Cc2ccccc2)NC(=O)[C@H](Cc2c[nH]cn2)NC(=O)CNC(=O)[C@H](C)N(C)C(=O)[C@@H](NC(=O)[C@H](Cc2ccccc2)NC(=O)[C@H](CCCNC(=N)N)NC(=O)[C@@H](N)CCC(N)=O)C(C)(C)SSC[C@@H](C(=O)N[C@@H](CC(N)=O)C(=O)NCC(=O)N2CCC[C@H]2C(N)=O)NC(=O)[C@@H]2CCCN2C(=O)[C@H](Cc2ccc(O)cc2)NC1=O
For B6, the dissociation constant Kd in test [8] worked out at 1000 nM. The IC50 in test [9] is 5500 nM.

B7: Peptide No. 96 (peptide)
peptide: QR[dF][Pen]TGHFGGLYPCNGP-NH2
modifications: disulfide 4-14; N-terminus assumed
SMILES: CC(C)C[C@@H]1NC(=O)CNC(=O)CNC(=O)[C@H](Cc2ccccc2)NC(=O)[C@H](Cc2c[nH]cn2)NC(=O)CNC(=O)[C@H]([C@@H](C)O)NC(=O)[C@@H](NC(=O)[C@@H](Cc2ccccc2)NC(=O)[C@H](CCCNC(=N)N)NC(=O)[C@@H](N)CCC(N)=O)C(C)(C)SSC[C@@H](C(=O)N[C@@H](CC(N)=O)C(=O)NCC(=O)N2CCC[C@H]2C(N)=O)NC(=O)[C@@H]2CCCN2C(=O)[C@H](Cc2ccc(O)cc2)NC1=O
The molecule B7 had a concentration for half-maximal inhibition (IC50) in [7] of 11400 nM. This lies in the double-digit micromolar range.

B8: Peptide No. 114 (peptide)
peptide: QRF[Pen]TGHFGGL[NMeY]PCNGP-NH2
modifications: disulfide 4-14; N-terminus assumed
SMILES: CC(C)C[C@@H]1NC(=O)CNC(=O)CNC(=O)[C@H](Cc2ccccc2)NC(=O)[C@H](Cc2c[nH]cn2)NC(=O)CNC(=O)[C@H]([C@@H](C)O)NC(=O)[C@@H](NC(=O)[C@H](Cc2ccccc2)NC(=O)[C@H](CCCNC(=N)N)NC(=O)[C@@H](N)CCC(N)=O)C(C)(C)SSC[C@@H](C(=O)N[C@@H](CC(N)=O)C(=O)NCC(=O)N2CCC[C@H]2C(N)=O)NC(=O)[C@@H]2CCCN2C(=O)[C@H](Cc2ccc(O)cc2)N(C)C1=O
In [10], B8 gave a Kd of 92000 nM. QRFCTGHFGGLXPCNGP (Pen 4; 3-pyridylAla 12; disulfide 4-14; C-terminal amide) [Peptide No. 67] returned a Kd in test [11] of 34000 nM. The molecule further came in with a half-inhibitory concentration (IC50) in test [12] of 92000 nM.

B9: Peptide No. 99 (peptide)
peptide: RF[Pen]TGHFGGLYPC-NH2
modifications: disulfide 3-13; N-terminus assumed
SMILES: CC(C)C[C@@H]1NC(=O)CNC(=O)CNC(=O)[C@H](Cc2ccccc2)NC(=O)[C@H](Cc2c[nH]cn2)NC(=O)CNC(=O)[C@H]([C@@H](C)O)NC(=O)[C@@H](NC(=O)[C@H](Cc2ccccc2)NC(=O)[C@@H](N)CCCNC(=N)N)C(C)(C)SSC[C@@H](C(N)=O)NC(=O)[C@@H]2CCCN2C(=O)[C@H](Cc2ccc(O)cc2)NC1=O
Regarding B9, the IC50 in [6] and in [13] was 2000 nM each time.

B10: Peptide No. 113 (peptide)
peptide: QRF[Pen]TGHFGG[NMeL]YPCNGP-NH2
modifications: disulfide 4-14; N-terminus assumed
SMILES: CC(C)C[C@H]1C(=O)N[C@@H](Cc2ccc(O)cc2)C(=O)N2CCC[C@H]2C(=O)N[C@H](C(=O)N[C@@H](CC(N)=O)C(=O)NCC(=O)N2CCC[C@H]2C(N)=O)CSSC(C)(C)[C@H](NC(=O)[C@H](Cc2ccccc2)NC(=O)[C@H](CCCNC(=N)N)NC(=O)[C@@H](N)CCC(N)=O)C(=O)N[C@@H]([C@@H](C)O)C(=O)NCC(=O)N[C@@H](Cc2c[nH]cn2)C(=O)N[C@@H](Cc2ccccc2)C(=O)NCC(=O)NCC(=O)N1C
Molecule B10 displayed an IC50 in test [3] of 1600 nM. The Kd in test [14] turned out to be 86 nM.

B11: Peptide No. 216 (peptide)
peptide: QRFCTGHFGXYPCNGP
modifications: Pen 4; X 10 = L,L-Friedinger's lactam (dipeptide mimetic in place of Gly-Leu); disulfide 4-13; C-terminal amide
Take B11: the IC50 in [1] amounted to 19000 nM.

Values taken from patent publication US20110059889A1 (SYNTONIX PHARMACEUTICALS, published 2011).
